In paper PMC12470938:

Molecular target: T1, Rme1 (Trichoderma reesei) (UniProt G0RR27)
T1 sequence: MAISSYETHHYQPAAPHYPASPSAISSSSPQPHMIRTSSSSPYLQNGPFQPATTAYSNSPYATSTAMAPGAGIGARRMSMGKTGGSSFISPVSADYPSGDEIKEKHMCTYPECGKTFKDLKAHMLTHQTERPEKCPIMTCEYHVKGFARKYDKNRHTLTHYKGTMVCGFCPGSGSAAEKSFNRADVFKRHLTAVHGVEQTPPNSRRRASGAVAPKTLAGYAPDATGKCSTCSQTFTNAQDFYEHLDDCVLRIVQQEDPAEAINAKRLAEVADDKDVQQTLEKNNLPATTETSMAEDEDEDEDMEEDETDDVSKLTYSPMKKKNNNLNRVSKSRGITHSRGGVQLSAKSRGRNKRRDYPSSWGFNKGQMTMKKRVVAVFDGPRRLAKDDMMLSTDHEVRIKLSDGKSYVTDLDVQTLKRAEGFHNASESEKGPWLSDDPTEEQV
Test: EMSA
Conditions: 20 mM Tris-HCl pH 7.4, 50 mM KCl, 5% glycerol, 1 mM DTT, 50 µg/mL BSA, 50 µM zinc sulfate; 100 ng probe, 25 min at room temperature; 6% native PAGE at 4 °C

Sequence: AGCAGCAGCGGCAATAACAAATACAGTAACAAATGGGGACCAGAATGCGAATTTGAAACGACAGGAACGAACACGGAGGAGGGGGCGGGGGTTGGCACGTTGGCTAAAGAATATTTCTACCTATCCACAGATGTAGC (double strand) [Pswo probe]
- binding: no binding
